Assay results published in doi:10.1101/2023.09.21.558797, “Dynamin 1xA interacts with Endophilin A1 via its spliced long C-terminus for ultrafast endocytosis” (bioRxiv, 2023).
No end group written: not given here.

B3: Endophilin A1 SH3 domain (GST tag removed) (domain or fragment)
chain: not shown
notes: Endophilin A1, mouse, SH3 domain, amino acids 292-352 by the methods (the results say residues D291-H352); plasmid from Peter McPherson (McGill University); unlabelled in the titrations; also called endophilin SH3; Endophilin A SH3; source: E. coli JM109, GST tag proteolytically cleaved, purified by gel filtration
B6: His-tagged mouse Endophilin A1 SH3 domain (domain or fragment)
chain: not shown
notes: Endophilin A1, mouse, SH3 domain; the methods describe only a GST-Endophilin A1-SH3 construct (mouse, 292-352); no His-tagged construct is described there; also called His-tagged mouse Endophilin-SH3 domain

Experiments:
Settings in all cases: both partners purified
[1] = target: B6; experiment: ELISA; His-tagged mouse Endophilin A1 SH3 domain coated on a 96-well plate, overlaid with increasing concentrations of GST-tagged Dyn1-PRR peptides; two experiments of four replicates
[2] = target: B3; experiment: NMR titration; 1H-15N HSQC chemical shift perturbation; unlabelled Endophilin A1 SH3 titrated into 15N-labelled Dyn1 peptide; 298 K, 600 MHz
[3] = target: T1, Dyn1xA-PRR 746-864 (GST tag removed) (rat, UniProt P21575 746-864, 15N-labelled (or 15N, 13C labelled) for NMR); experiment: SEC-MALS; Superdex 75 10/300 GL, 20 mM HEPES, 100 mM NaCl, 1 mM DTT, 1 mM PMSF, pH 7.2; complex at 0.5 mg and diluted to one third (0.167 mg)
T1 construct: the SEC-MALS mass (19.2 kDa for the 1:1 complex) fits the cleaved forms; also called PRD; source: E. coli JM109, GST tag proteolytically cleaved, purified by gel filtration
T1 sequence (looked up): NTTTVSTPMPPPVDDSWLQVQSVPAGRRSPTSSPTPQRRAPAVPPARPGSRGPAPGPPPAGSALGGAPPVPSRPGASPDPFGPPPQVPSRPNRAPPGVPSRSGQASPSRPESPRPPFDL

[4] = target: T2, GST-Dyn1xA-PRR (full-length proline-rich region of Dynamin 1 splice variant xA, 746-864) (rat, UniProt P21575 746-864); experiment: ELISA; His-tagged mouse Endophilin A1 SH3 domain coated on a 96-well plate, overlaid with increasing concentrations of GST-tagged Dyn1-PRR peptides; two experiments of four replicates
T2 construct: cloned in pGEX-6P-1; used on beads in pull-downs and in solution in the ELISA; also called PRD
T2 sequence (looked up): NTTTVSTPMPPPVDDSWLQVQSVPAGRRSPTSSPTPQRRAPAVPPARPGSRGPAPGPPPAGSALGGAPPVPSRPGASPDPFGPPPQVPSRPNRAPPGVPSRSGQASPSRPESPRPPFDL

His-tagged mouse Endophilin A1 SH3 domain, sequence (Q62420 290-349): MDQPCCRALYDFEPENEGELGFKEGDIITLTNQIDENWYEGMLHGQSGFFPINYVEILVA

B1: GST-Dyn1xA 746-798 (domain or fragment, rat, UniProt P21575 746-798, looked up)
chain: NTTTVSTPMPPPVDDSWLQVQSVPAGRRSPTSSPTPQRRAPAVPPARPGSRGP
notes: Dynamin 1, rat, N746 to P798 of the PRR, common to splice variants xA and xB; also called phosphobox-1 peptide
- fold weaker affinity than xA_(746–864) [1]: 9 fold

B2: Dyn1xA 746-798 (GST tag removed) (domain or fragment, rat, UniProt P21575 746-798, looked up)
chain: NTTTVSTPMPPPVDDSWLQVQSVPAGRRSPTSSPTPQRRAPAVPPARPGSRGP
modifications: also: 15N-labelled (13C/15N for assignment)
notes: Dynamin 1, rat, N746 to P798 of the PRR; source: E. coli JM109, GST tag proteolytically cleaved, purified by gel filtration
- binding result [2]: binds

Binder: B3
- stoichiometry N [3]: 1

B4: GST-Dyn1xA 806-864 (domain or fragment, rat, UniProt P21575 806-864, looked up)
chain: GSALGGAPPVPSRPGASPDPFGPPPQVPSRPNRAPPGVPSRSGQASPSRPESPRPPFDL
notes: Dynamin 1 splice variant xA, rat, G806 to L864
- fold difference in affinity from xA_(746–864) [1]: < 2 fold
- fold higher affinity than xA_(746–798) [1]: 5 fold

B5: Dyn1xA 806-864 (GST tag removed) (domain or fragment, rat, UniProt P21575 806-864, looked up)
chain: GSALGGAPPVPSRPGASPDPFGPPPQVPSRPNRAPPGVPSRSGQASPSRPESPRPPFDL
modifications: also: 15N-labelled (13C/15N for assignment)
notes: Dynamin 1 splice variant xA, rat, G806 to L864; source: E. coli JM109, GST tag proteolytically cleaved, purified by gel filtration
- binding result [2]: binds

Binder: B6
- Kd [4]: 44 nM
